Laboratory results: US20260042815A1, “UNIVERSAL T CELLS AND COMPOSITIONS AND METHODS OF USE THEREOF” (The Trustees of the University of Pennsylvania, priority 2022, published 2026)

System: stress ligands (MICA, MICB, ULBP 1-6) on K562 target cells
Test: Stress ligand blocking on K562 target cells with soluble NKG2D protein
Type: cell-based, human
Details: parental K562 and K878 targets, NK cells from two donors
From the text: Soluble NKG2D protein was employed to block stress ligands (MICA, MICB, ULBP 1-6) on K562 target cells, which interfered with NKG2D mediated recognition of target cells.

B1: NKG2D protein: Soluble NKG2D protein employed to block stress ligands (MICA, MICB, ULBP 1-6) on K562 target cells (protein, UniProt P26718 73-216, looked up)
extracellular domain: IWSAVFLNSLFNQEVQIPLTESYCGPCPKNWICYKNNCYQFFDESKNWYESQASCMSQNASLLKVYSKEDQDLLKLVKSYHWMGLVHIPTNGSWQWEDGSILSPNLLTIIEMQKGDCALYASSFKGYIENCSTPNTYICMQRTV
modifications: extracellular domain
Effect on target cell recognition by NK cells: minimal efficacy
